The values below are quoted from earlier work in PMC2884063.

The data set concerns the target Importin β (Homo sapiens) (UniProt Q14974).
UniProt Q14974, sequence (Q14974 whole entry): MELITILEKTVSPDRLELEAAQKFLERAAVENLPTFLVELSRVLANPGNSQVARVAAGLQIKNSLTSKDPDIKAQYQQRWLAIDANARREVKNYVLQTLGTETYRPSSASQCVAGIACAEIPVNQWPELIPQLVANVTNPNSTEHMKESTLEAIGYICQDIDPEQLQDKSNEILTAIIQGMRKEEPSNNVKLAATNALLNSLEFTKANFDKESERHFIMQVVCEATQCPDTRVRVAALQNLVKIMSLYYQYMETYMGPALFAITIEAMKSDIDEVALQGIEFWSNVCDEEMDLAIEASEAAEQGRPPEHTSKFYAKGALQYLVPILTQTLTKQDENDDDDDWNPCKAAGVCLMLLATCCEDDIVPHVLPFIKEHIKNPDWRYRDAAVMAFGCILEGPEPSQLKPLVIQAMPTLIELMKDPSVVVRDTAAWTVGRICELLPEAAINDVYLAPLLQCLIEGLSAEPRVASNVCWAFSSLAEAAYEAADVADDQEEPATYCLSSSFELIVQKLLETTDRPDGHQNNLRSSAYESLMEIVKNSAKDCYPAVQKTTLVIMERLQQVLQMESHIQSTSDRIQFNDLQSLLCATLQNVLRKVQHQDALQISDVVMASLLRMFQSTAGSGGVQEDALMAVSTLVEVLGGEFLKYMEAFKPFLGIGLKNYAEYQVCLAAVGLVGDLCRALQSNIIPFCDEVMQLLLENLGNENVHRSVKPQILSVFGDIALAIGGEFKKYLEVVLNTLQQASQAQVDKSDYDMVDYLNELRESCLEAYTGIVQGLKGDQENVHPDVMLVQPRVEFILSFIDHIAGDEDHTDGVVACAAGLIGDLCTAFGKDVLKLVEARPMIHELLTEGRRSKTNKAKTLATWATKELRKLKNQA

As to “Snp1 (snurportin 1) IBB (from UniProt O95149)”, the equilibrium dissociation constant (Kd) is 2 nM.
